# Data published in patent US20140357577A1, “HIV Membrane Fusion Inhibitors” (priority 2011, published 2014).
# Starred links: 1 amine or outer side, 2 acyl side, 3 side chain; linkers in the order of their positions; H or OH if unused. Positions of bridges follow the written chain, without caps; N, C: chain ends. Non-standard residues stand in square brackets, D forms with d. *: point of attachment. pXylylene = c1cc(C[*:2])ccc1C[*:1]; Suc = O=C(CCC(=O)[*:2])[*:1]; Abu = CC[C@H](N)C(=O)O; Pentanoyl = CCCCC(=O)*; B1 = not defined here
# B1: peptide 51 (peptide)
# peptide: Ac-ACYLACIEALIRRAQEQQEKNEAALR-NH2
# modifications: linker 2-6 via pXylylene
# SMILES: CC[C@H](C)[C@H](NC(=O)[C@@H]1CSCc2ccc(cc2)CSC[C@H](NC(=O)[C@H](C)NC(C)=O)C(=O)N[C@@H](Cc2ccc(O)cc2)C(=O)N[C@@H](CC(C)C)C(=O)N[C@@H](C)C(=O)N1)C(=O)N[C@@H](CCC(=O)O)C(=O)N[C@@H](C)C(=O)N[C@@H](CC(C)C)C(=O)N[C@H](C(=O)N[C@@H](CCCNC(=N)N)C(=O)N[C@@H](CCCNC(=N)N)C(=O)N[C@@H](C)C(=O)N[C@@H](CCC(N)=O)C(=O)N[C@@H](CCC(=O)O)C(=O)N[C@@H](CCC(N)=O)C(=O)N[C@@H](CCC(N)=O)C(=O)N[C@@H](CCC(=O)O)C(=O)N[C@@H](CCCCN)C(=O)N[C@@H](CC(N)=O)C(=O)N[C@@H](CCC(=O)O)C(=O)N[C@@H](C)C(=O)N[C@@H](C)C(=O)N[C@@H](CC(C)C)C(=O)N[C@@H](CCCNC(=N)N)C(N)=O)[C@@H](C)CC
# B2: peptide 53 (peptide)
# peptide: Ac-ECYAACIEELIRKAQEQQEKNEAALR-NH2
# modifications: linker 2-6 via pXylylene
# SMILES: CC[C@H](C)[C@H](NC(=O)[C@@H]1CSCc2ccc(cc2)CSC[C@H](NC(=O)[C@H](CCC(=O)O)NC(C)=O)C(=O)N[C@@H](Cc2ccc(O)cc2)C(=O)N[C@@H](C)C(=O)N[C@@H](C)C(=O)N1)C(=O)N[C@@H](CCC(=O)O)C(=O)N[C@@H](CCC(=O)O)C(=O)N[C@@H](CC(C)C)C(=O)N[C@H](C(=O)N[C@@H](CCCNC(=N)N)C(=O)N[C@@H](CCCCN)C(=O)N[C@@H](C)C(=O)N[C@@H](CCC(N)=O)C(=O)N[C@@H](CCC(=O)O)C(=O)N[C@@H](CCC(N)=O)C(=O)N[C@@H](CCC(N)=O)C(=O)N[C@@H](CCC(=O)O)C(=O)N[C@@H](CCCCN)C(=O)N[C@@H](CC(N)=O)C(=O)N[C@@H](CCC(=O)O)C(=O)N[C@@H](C)C(=O)N[C@@H](C)C(=O)N[C@@H](CC(C)C)C(=O)N[C@@H](CCCNC(=N)N)C(N)=O)[C@@H](C)CC
# B3: peptide 54 (peptide)
# peptide: Ac-ACYLACIEALIRAAQEQQEKNEAALL-NH2
# modifications: linker 2-6 via pXylylene
# SMILES: CC[C@H](C)[C@H](NC(=O)[C@H](CC(C)C)NC(=O)[C@H](C)NC(=O)[C@H](CCC(=O)O)NC(=O)[C@@H](NC(=O)[C@@H]1CSCc2ccc(cc2)CSC[C@H](NC(=O)[C@H](C)NC(C)=O)C(=O)N[C@@H](Cc2ccc(O)cc2)C(=O)N[C@@H](CC(C)C)C(=O)N[C@@H](C)C(=O)N1)[C@@H](C)CC)C(=O)N[C@@H](CCCNC(=N)N)C(=O)N[C@@H](C)C(=O)N[C@@H](C)C(=O)N[C@@H](CCC(N)=O)C(=O)N[C@@H](CCC(=O)O)C(=O)N[C@@H](CCC(N)=O)C(=O)N[C@@H](CCC(N)=O)C(=O)N[C@@H](CCC(=O)O)C(=O)N[C@@H](CCCCN)C(=O)N[C@@H](CC(N)=O)C(=O)N[C@@H](CCC(=O)O)C(=O)N[C@@H](C)C(=O)N[C@@H](C)C(=O)N[C@@H](CC(C)C)C(=O)N[C@@H](CC(C)C)C(N)=O
# B4: peptide 1 (peptide)
# peptide: Suc-ANYLALIEALIRAAQEQQEKNEAAL-NH2
# SMILES: CC[C@H](C)[C@H](NC(=O)[C@H](CC(C)C)NC(=O)[C@H](C)NC(=O)[C@H](CCC(=O)O)NC(=O)[C@@H](NC(=O)[C@H](CC(C)C)NC(=O)[C@H](C)NC(=O)[C@H](CC(C)C)NC(=O)[C@H](Cc1ccc(O)cc1)NC(=O)[C@H](CC(N)=O)NC(=O)[C@H](C)NC(=O)CCC(=O)O)[C@@H](C)CC)C(=O)N[C@@H](CCCNC(=N)N)C(=O)N[C@@H](C)C(=O)N[C@@H](C)C(=O)N[C@@H](CCC(N)=O)C(=O)N[C@@H](CCC(=O)O)C(=O)N[C@@H](CCC(N)=O)C(=O)N[C@@H](CCC(N)=O)C(=O)N[C@@H](CCC(=O)O)C(=O)N[C@@H](CCCCN)C(=O)N[C@@H](CC(N)=O)C(=O)N[C@@H](CCC(=O)O)C(=O)N[C@@H](C)C(=O)N[C@@H](C)C(=O)N[C@@H](CC(C)C)C(N)=O
# B5: peptide 52 (peptide)
# peptide: Pentanoyl-ENYLALIEELIRKAQEQQEKNEAALR-NH2
# SMILES: CCCCC(=O)N[C@@H](CCC(=O)O)C(=O)N[C@@H](CC(N)=O)C(=O)N[C@@H](Cc1ccc(O)cc1)C(=O)N[C@@H](CC(C)C)C(=O)N[C@@H](C)C(=O)N[C@@H](CC(C)C)C(=O)N[C@H](C(=O)N[C@@H](CCC(=O)O)C(=O)N[C@@H](CCC(=O)O)C(=O)N[C@@H](CC(C)C)C(=O)N[C@H](C(=O)N[C@@H](CCCNC(=N)N)C(=O)N[C@@H](CCCCN)C(=O)N[C@@H](C)C(=O)N[C@@H](CCC(N)=O)C(=O)N[C@@H](CCC(=O)O)C(=O)N[C@@H](CCC(N)=O)C(=O)N[C@@H](CCC(N)=O)C(=O)N[C@@H](CCC(=O)O)C(=O)N[C@@H](CCCCN)C(=O)N[C@@H](CC(N)=O)C(=O)N[C@@H](CCC(=O)O)C(=O)N[C@@H](C)C(=O)N[C@@H](C)C(=O)N[C@@H](CC(C)C)C(=O)N[C@@H](CCCNC(=N)N)C(N)=O)[C@@H](C)CC)[C@@H](C)CC
# B6: peptide 50 (peptide)
# peptide: Ac-ECYLRCIEALIRAAQEQQEKNEAALR-NH2
# modifications: linker 2-6 via pXylylene
# SMILES: CC[C@H](C)[C@H](NC(=O)[C@H](CC(C)C)NC(=O)[C@H](C)NC(=O)[C@H](CCC(=O)O)NC(=O)[C@@H](NC(=O)[C@@H]1CSCc2ccc(cc2)CSC[C@H](NC(=O)[C@H](CCC(=O)O)NC(C)=O)C(=O)N[C@@H](Cc2ccc(O)cc2)C(=O)N[C@@H](CC(C)C)C(=O)N[C@@H](CCCNC(=N)N)C(=O)N1)[C@@H](C)CC)C(=O)N[C@@H](CCCNC(=N)N)C(=O)N[C@@H](C)C(=O)N[C@@H](C)C(=O)N[C@@H](CCC(N)=O)C(=O)N[C@@H](CCC(=O)O)C(=O)N[C@@H](CCC(N)=O)C(=O)N[C@@H](CCC(N)=O)C(=O)N[C@@H](CCC(=O)O)C(=O)N[C@@H](CCCCN)C(=O)N[C@@H](CC(N)=O)C(=O)N[C@@H](CCC(=O)O)C(=O)N[C@@H](C)C(=O)N[C@@H](C)C(=O)N[C@@H](CC(C)C)C(=O)N[C@@H](CCCNC(=N)N)C(N)=O
# Molecular target: gp41 of HIV-1 strain HXB2D with mutation V38A (HIV-1 strain HXB2D, UniProt P04578)
# Test: cell-based or functional assay
row,Binder,"fold change in EC50, HIV-HXB2D V38A mutant [fold]"
1,B1,10
2,B2,34
3,Ac-ACYLACIEALIRKAQEQQEKNEAALR-NH2 (linker 2-6 via B1; reading uncertain) [peptide 48],10
4,Suc-ACYLACIEALIRA[Abu]QEQQEKNEAALR-NH2 (linker 2-6 via B1; reading uncertain) [peptide 47],17
5,B3,31
6,Suc-ACY[Abu]ACIEALIRAAQEQQEKNEAALR-NH2 (linker 2-6 via B1; reading uncertain) [peptide 49],33
7,B4,57
8,B5,5
9,B6,12
